Holding throughout (assay): potentiometry
In data set [1] the target is Lys70. The conditions noted are these: 298 K, 0.1 M NaClO4, none (HClO4-acidified solution titrated with 0.1 M carbonate-free NaOH under argon).
Data set [2] concerns the target His323. Conditions: 298 K, 0.1 M NaClO4, none (HClO4-acidified solution titrated with 0.1 M carbonate-free NaOH under argon).
Data set [3] addresses Cys143. The conditions noted are these: 298 K, 0.1 M NaClO4, none (HClO4-acidified solution titrated with 0.1 M carbonate-free NaOH under argon).
In data set [4] the target is Asp127. The conditions noted are these: 298 K; 0.1 M NaClO4; none (HClO4-acidified solution titrated with 0.1 M carbonate-free NaOH under argon); free (apo) peptide.
Where [5] appears, read: Cu(II)-bound, mononuclear 1:1 complex.

A word on the pKa: it is the negative logarithm of the acid dissociation constant. A higher pKa goes with a group that holds its proton tightly.

B1: CopM MxxHH metal-binding domain peptide (CopM 51-75) (Synechocystis sp. (PCC 6803 per reference titles)) (peptide)
chain: EMMTPHHQDAIDMAEMALQKAEHPE
Turning to B1, the values for the pKa in data set [1] (setting [5]) and in data set [1] (free (apo) peptide) were 9.56 and 9.94, respectively.

B2: OprC CxxxM-HxM metal-binding site model peptide (OprC 141-149 + 6Ala linker + OprC 321-326) (Pseudomonas aeruginosa) (peptide)
chain: GACPNRMDAAAAAAAADHIMD
On to B2, for which the pKa in data set [2] (setting [5]) came to 5.05; in data set [2] (free (apo) peptide), 6.92; in data set [3] (setting [5]) it was 7.49; in data set [3] (free (apo) peptide), 9.56.

B3: CopM MHxxH metal-binding domain peptide (CopM 113-127) (Synechocystis sp. (PCC 6803 per reference titles)) (peptide)
chain: GMMGMHQGHGMMAMD
In data set [4], B3 came in with a pKa of 3.80.
